Measurements: paper PMC8752827 (Nature Communications, 2022)
Where no end group is shown, it is not given here.

How the values were obtained:
Conditions in all cases: both partners purified
human IL-6 = human IL-6 (Homo sapiens, UniProt P05231); assay: pull-down; antibody fragment captured by RGS-tag on AC-resin co- or post-translationally, washed, treated with neutral buffer or 2 M GdnHCl/100 mM DTT then 1 M GdnHCl/10 mM GSH (or fully refolded from 6 M GdnHCl); incubated with 50 uL of 10 uM antigen for 3 h at RT; washed; eluted by boiling or by PreScission cleavage; SDS-PAGE
Human serum albumin = target: T1, Human serum albumin (Homo sapiens, UniProt P02768); assay: as above
T1 construct: also called HSA

Trypsin = Trypsin (UniProt P00760 18-246); assay: enzyme inhibition assay (trypsin-inhibitory assay); 100 pM trypsin pre-incubated with peptide (twofold dilution series from 4 nM to 3.9 pM) for 3 h at room temperature in 0.1 M NaCl, 10 mM CaCl2, 0.005% Triton X-100, 0.1 M Tris-HCl pH 8.0; residual activity on Boc-Q-A-R-AMC (10 uM); Ki from IC50 by a tight-binding equation, Km 12 uM
Sequence of Trypsin (P00760 24-246): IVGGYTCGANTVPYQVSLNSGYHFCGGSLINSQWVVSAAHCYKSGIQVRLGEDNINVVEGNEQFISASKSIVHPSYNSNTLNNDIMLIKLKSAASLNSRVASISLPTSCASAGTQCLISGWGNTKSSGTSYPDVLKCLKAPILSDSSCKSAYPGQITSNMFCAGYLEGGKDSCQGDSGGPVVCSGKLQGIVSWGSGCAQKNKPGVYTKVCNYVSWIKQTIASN

Sequence of human IL-6 (P05231 30-212): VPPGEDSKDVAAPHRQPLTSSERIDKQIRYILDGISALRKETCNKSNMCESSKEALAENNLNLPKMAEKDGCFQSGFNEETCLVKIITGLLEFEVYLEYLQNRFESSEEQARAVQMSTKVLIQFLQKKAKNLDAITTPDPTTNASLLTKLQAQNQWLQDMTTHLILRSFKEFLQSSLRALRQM

binding result (human IL-6)	binding result (Human serum albumin)	Binder	further results
binds		anti-IL-6 Fab (Fab, V domains shown) VH: EVQLQESGPGLVKPSQTLSLTCTVSGGSITTRYYAWSWIRQPPGKGLEWMGVIDYDGDTYYSPSLKSRTSISWDTSKNQFSLQLSSVTPEDTAVYYCARDPDVVTGFHYDYWGQGTQVTVSS VL: QAVLTQPPLVSGTPGQTVTISCAGANNDIGTYAYVSWYQQLPGTAPKLLIYKVTTRASGIPSRFSGSKSGNTASLTISGLQSEDEADYYCASYRNFNNAVFGRGTHLTVL	
	binds	anti-HSA scFv (scFv, V domains shown) VH: EVQLLESGGGLVQPGGSLRLSCAVSGIDLSNYAINWVRQAPGKGLEWIGIIWASGTTFYATWAKGRFTISRDNSKNTVYLQMNSLRAEDTAVYYCARTVPGYSTAPYFDLWGQGTLVTVSS VL: DIQMTQSPSSVSASVGDRVTITCQSSPSVWSNFLSWYQQKPGKAPKLLIYEASKLTSGVPSRFSGSGSGTDFTLTISSLQPEDFATYYCGGGYSSISDTTFGGGTKVEIK	
	binds	anti-HSA Fab (Fab, V domains shown) VH: EVQLLESGGGLVQPGGSLRLSCAVSGIDLSNYAINWVRQAPGKGLEWIGIIWASGTTFYATWAKGRFTISRDNSKNTVYLQMNSLRAEDTAVYYCARTVPGYSTAPYFDLWGQGTLVTVSS VL: DIQMTQSPSSVSASVGDRVTITCQSSPSVWSNFLSWYQQKPGKAPKLLIYEASKLTSGVPSRFSGSGSGTDFTLTISSLQPEDFATYYCGGGYSSISDTTFGGGTKVEIK	
		SGSDGGVCPKILKKCRRDSDCPGACICRGNGYCGGAG (disulfide (positions not given here); also: three disulfides, pairing not given here, fused to RGS, also called wtMCoTI-RGS; wtMCoTI) [wild-type MCoTI-II fused to RGS]	fold Ki against prmMCoTI (Trypsin): ~4 fold
binds		anti-IL-6 scFv (scFv, V domains shown) VH: QVQLVESGGGLVQPGGSLRLSCAASGFNFNDYFMNWVRQAPGKGLEWVAQMRNKNYQYGTYYAESLEGRFTISRDDSKNSLYLQMNSLKTEDTAVYYCARESYYGFTSYWGQGTLVTVSG VL: GIQMTQSPSSLSASVGDRVTITCQASQDIGISLSWYQQKPGKAPKLLIYNANNLADGVPSRFSGSGSGTDFTLTISSLQPEDFATYYCLQHNSAPYTFGQGTKLETG	
